In patent US20240190987A1 (TIGATX, published 2024):
Changes are numbered by the printed parent chain.

B1: Ab0936 (antibody, V domains shown)
VH: EVQLVESGGGLVQPGGSLRLSCAASGFDFSSYSIHWVRQAPGKGLEWVAAISPYYGSTYYADSVKGRFTISADTSKNTAYLQMNSLRAEDTAVYYCARYYEWYKYDLYLGSLGFDYWGQGTLVTVSS
VL: DIQMTQSPSSLSASVGDRVTITCRASQSVSSAVAWYQQKPGKAPKLLIYSASSLYSGVPSRFSGSRSGTDFTLTISSLQPEDFATYYCQQGGYSLITFGQGTKVEIK
notes: also called LS2B R6M2
B2: Ab1071 (Fab, V domains shown)
VH: B1 VH with A50S, L109A
VL: B1 VL
notes: also called LS2B R5M2 Fab
B3: Ab0939 (antibody, V domains shown)
VH: B1 VH with A50S, P53A
VL: B1 VL
notes: also called LS2B R6M5
B4: Ab0944 (antibody, V domains shown)
VH: B1 VH with A50S, D106A
VL: B1 VL
notes: also called LS2B R6M10
B5: Ab0953 (antibody, V domains shown)
VH: B1 VH with A50S
VL: B1 VL with G92A
notes: also called LS2B R6M22
B6: Ab0958 (antibody, V domains shown)
VH: B1 VH with A50S
VL: B1 VL with T97A
notes: also called LS2B R6M27
B7: Ab0937 (antibody, V domains shown)
VH: B1 VH with A50S, I51A
VL: B1 VL
notes: also called LS2B R6M3
B8: Ab0941 (antibody, V domains shown)
VH: B1 VH with A50S, S57A
VL: B1 VL
notes: also called LS2B R6M7

These binders were tested against T1, Ab0787 (assay: BLI 5-pt +indinavir).
T1 construct: Fab, His-Tag, Avi-Tag; Ab0785 + HC I50M; also called LS2A R3M2; Ab787
For B1, the Kd was 1 nM.

These binders were tested against T2, Ab0786 (assay: BLI +indinavir).
T2 construct: Fab, His-Tag, Avi-Tag; Ab0785 + HC I50M+S58N; also called LS2A R3M1 Fab; biotinylated-Ab0786
In the case of B2, the Kd is reported as 79 nM.

What follows are binders tested against T1, Ab0787 (assay: BLI 1-pt +indinavir).
B1 was tested, and the Kd was 5.7 nM. Work on B3 yielded a Kd of 40 nM. B4 gave a Kd of 100 nM. For B5, the Kd was 50 nM. B6 gave a Kd of 42 nM. B7 was tested, and the Kd was 42 nM. B8 gave a Kd of 49 nM.
